This is an account of results in publication PMC6987120, “Structural insights into ATP hydrolysis by the MoxR ATPase RavA and the LdcI-RavA cage-like complex” (Communications Biology, 2020).

One may read the Kd as the equilibrium constant for the complex coming apart. Read a high Kd as lower affinity. What is called koff is the rate constant with which the complex falls apart. Higher therefore signals a short-lived complex. For orientation: kon means the rate constant with which the complex forms. High values mean faster complex formation, low ones slower complex formation. What is called stoichiometry N is a count of units in the complex or per binding partner.

Values joined by “and” are separate entries in the source; they are usually repeats but may differ in a detail not shown here. Equal entries are not always repeated.

The labels stand for the following.
T1: LdcI (acid stress-inducible lysine decarboxylase) (E. coli, UniProt P0A9H3 1-715)
T1 construct: Inducible lysine decarboxylase LdcI of E. coli; 0.1 mM PLP in the BLI buffer; also called lysine decarboxylase LdcI; source: E. coli ppGpp-/- strain MG1655 ΔrelA ΔspoT, purified as previously described
T1 sequence: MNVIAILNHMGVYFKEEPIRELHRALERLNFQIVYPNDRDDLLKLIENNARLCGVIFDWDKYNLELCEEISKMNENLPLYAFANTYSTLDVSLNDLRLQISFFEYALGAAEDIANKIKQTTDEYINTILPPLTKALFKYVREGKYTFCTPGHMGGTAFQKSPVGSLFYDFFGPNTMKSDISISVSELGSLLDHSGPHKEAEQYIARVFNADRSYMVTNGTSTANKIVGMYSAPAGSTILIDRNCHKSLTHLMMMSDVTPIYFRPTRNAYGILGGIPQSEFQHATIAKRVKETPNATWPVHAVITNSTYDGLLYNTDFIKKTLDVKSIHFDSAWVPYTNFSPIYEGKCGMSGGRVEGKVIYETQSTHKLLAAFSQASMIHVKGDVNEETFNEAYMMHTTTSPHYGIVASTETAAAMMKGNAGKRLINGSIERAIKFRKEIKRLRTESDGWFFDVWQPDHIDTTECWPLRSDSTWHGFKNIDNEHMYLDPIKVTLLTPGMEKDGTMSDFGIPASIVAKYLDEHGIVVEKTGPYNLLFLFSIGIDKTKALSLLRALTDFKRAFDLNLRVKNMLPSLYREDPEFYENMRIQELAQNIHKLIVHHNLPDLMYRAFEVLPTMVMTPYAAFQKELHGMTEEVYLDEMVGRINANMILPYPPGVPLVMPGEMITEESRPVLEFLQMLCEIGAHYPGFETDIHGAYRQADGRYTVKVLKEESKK

B1: biotinylated RavA-AviTag (enzyme)
chain: not shown
modifications: biotin (biotinylated AviTag)
notes: RavA of E. coli cloned in the p11 vector (N-terminal cleavable HIS-tag) with a C-terminal AviTag added; Incubated with 1 mM ADP for 10 min before BLI; also called AviTag-containing RavA; source: E. coli BL-21 DE3 (100 μM D-biotin in the LB medium, overnight, 20 °C), purified to homogeneity; not shown: AviTag, C-terminal, kept
B2: MoxR AAA+ ATPase RavA (enzyme)
chain: not shown
notes: RavA, MoxR family AAA+ ATPase of E. coli, encoded by the ravAviaA operon; cloned in the p11 vector (N-terminal cleavable HIS-tag); Hexamer (spiral or C2-symmetric closed ring) by cryo-EM with ADP; also called free RavA; RavA-ADP
B3: biotinylated RavA-AviTag (enzyme)
chain: not shown
modifications: biotin (biotinylated AviTag)
notes: MoxR AAA+ ATPase RavA of E. coli, cloned in the p11 vector (N-terminal cleavable HIS-tag) with a C-terminal AviTag added; The methods describe biotinylation during expression (D-biotin in the medium), the results say 'in vitro biotinylated'; source: E. coli BL-21 DE3 (100 μM D-biotin in the LB medium, overnight, 20 °C), purified to homogeneity; not shown: AviTag, C-terminal, kept
B4: acid stress-inducible lysine decarboxylase LdcI (enzyme, E. coli)
chain: T1 sequence
notes: LdcI, inducible lysine decarboxylase of E. coli; Decamer in the cryo-EM maps of the cage; Buffers held 0.1 mM PLP; source: ppGpp-/- E. coli strain (MG1655 ΔrelA ΔspoT), purified as previously described; copies: 10

The target in data set [1] is B4. As to the kind of experiment: BLI; biotinylated RavA-AviTag (pre-incubated with 1 mM ADP) immobilised on streptavidin biosensors; LdcI 500-31.25 nM in solution; Octet RED96, 293 K; pH 8 (Tris), 7 (HEPES), 6.5 and 5 (MES), 300 mM NaCl, 10 mM MgCl2, 10% glycerol, 0.1% BSA, 0.02% Tween-20, 1 mM ADP, 1 mM DTT, 0.1 mM PLP; 1:1 interaction model; averages over the four pH values. Particulars: both partners purified. For orientation: In BLI a coated tip is dipped into the sample, and binding shifts an interference pattern.

Data set [2] addresses B4. As to the kind of experiment: cryo-EM structure; purified LdcI and RavA mixed at about 4.5:2 RavA:LdcI monomers; 20 mM Tris pH 7.9, 300 mM NaCl, 2 mM ADP, 10 mM MgCl2, 0.1 mM PLP, 1 mM DTT; room temperature; maps of Class 1 and Class 2 without symmetry imposed. Particulars: both partners purified.
Data set [3] concerns the molecule itself. Described as above.
Data set [4] concerns the target T1, LdcI (acid stress-inducible lysine …). Kind of data set: BLI; biotinylated RavA-AviTag incubated with 1 mM ADP for 10 min, on streptavidin biosensors, quenched with biocytin; LdcI 500-31.25 nM in solution; pH 5.0 (1x MES pH 5, with 1x kinetics buffer, 1 mM ADP, 1 mM DTT, 0.1 mM PLP); 293 K, Octet RED96; 1:1 interaction model. Particulars: both partners purified.

Data set [5] has the same target. As to the kind of experiment: BLI; biotinylated RavA-AviTag on streptavidin biosensors WITHOUT prior incubation with ADP, quenched with biocytin; LdcI 500-31.25 nM in solution; pH 7.0 (1x HBS: 25 mM HEPES, 300 mM NaCl, 10 mM MgCl2, 10% glycerol, with 1x kinetics buffer, 1 mM DTT, 0.1 mM PLP); 293 K, Octet RED96; 1:1 interaction model. Particulars: both partners purified.

Data set [6] has the same target. Kind of data set: BLI; biotinylated RavA-AviTag incubated with 1 mM ADP for 10 min, on streptavidin biosensors, quenched with biocytin; LdcI 500-31.25 nM in solution; pH 6.5 (1x MES: 25 mM MES, 300 mM NaCl, 10 mM MgCl2, 10% glycerol, with 1x kinetics buffer, 1 mM ADP, 1 mM DTT, 0.1 mM PLP); 293 K, Octet RED96; 1:1 interaction model. Particulars: both partners purified.

For data set [7] the target is unchanged. As to the kind of experiment: BLI; biotinylated RavA-AviTag incubated with 1 mM ADP for 10 min, on streptavidin biosensors, quenched with biocytin; LdcI 500-31.25 nM in solution; pH 8.0 (1x TBS: 25 mM Tris, 300 mM NaCl, 10 mM MgCl2, 10% glycerol, with 1x kinetics buffer, 1 mM ADP, 1 mM DTT, 0.1 mM PLP); 293 K, Octet RED96; 1:1 interaction model. Particulars: both partners purified.

Data set [8] shares this target. As to the kind of experiment: BLI; biotinylated RavA-AviTag incubated with 1 mM ADP for 10 min, on streptavidin biosensors, quenched with biocytin; LdcI 500-31.25 nM in solution; pH 7.0 (1x HBS: 25 mM HEPES, 300 mM NaCl, 10 mM MgCl2, 10% glycerol, with 1x kinetics buffer, 1 mM ADP, 1 mM DTT, 0.1 mM PLP); 293 K, Octet RED96; 1:1 interaction model. Particulars: both partners purified.

In the case of B1, in data set [1], the Kd was 20 nM to 40 nM (2×) and 29.7 nM; the koff is 0.000811 s⁻¹; the kon was found to be 26800 M⁻¹ s⁻¹.

In the case of B2, in data set [2], the binding result is “binds”. Besides, the “stoichiometry N” value in data set [3] came out at 6.

Regarding B3, the Kd in data set [4] was 27.1 nM; in data set [5] it was 46.3 nM; in data set [6] it was 20.9 nM; in data set [7], 44.2 nM; in data set [8], 26.7 nM. Besides, the koff amounted to 0.00074 s⁻¹ in data set [4]; 0.000987 s⁻¹ in data set [5]; 0.000538 s⁻¹ in data set [6]; 0.00131 s⁻¹ in data set [7]; 0.000659 s⁻¹ in data set [8]. The kon in data set [4] is 27300 M⁻¹ s⁻¹; in data set [5], 21300 M⁻¹ s⁻¹; in data set [6], 25700 M⁻¹ s⁻¹; in data set [7], 29600 M⁻¹ s⁻¹; in data set [8], 24700 M⁻¹ s⁻¹.

On to B4, for which, in data set [3], the “stoichiometry N” value stood at 10.
